The numbers were not newly measured in article PMC6764118, which cites them from elsewhere.

The data set deals with Lys199 (UniProt position 223, AKQRLKCASLQ). In words: chemical modification.

For “Human serum albumin (HSA) (Homo sapiens)”, the pKa result is on record as “∼8”.
